# Data as given in paper PMC2976697.
# Biological target: Helicobacter pylori CCUG 17874 L-asparaginase (Helicobacter pylori CCUG 17874) (UniProt O25424)
# Assay: non-reducing SDS-PAGE with LC-MS/MS of the band; active Superdex 75 fractions of BCF, mixed with non-reducing SDS buffer, 10-12% SDS-PAGE; band at about 121 kDa cut out, trypsin digested and identified by LC-MS/MS
substance,measurement,value
Helicobacter pylori CCUG 17874 L-asparaginase (from UniProt O25424 1-330) (enzyme),stoichiometry N,4
